Results as given in PMC6212770 (Nucleic Acids Research, 2018).

How the values were obtained:
HermesΔ transposase [1] = target: T1, HermesΔ transposase (UniProt Q25438 79-612, C519S;del497-516); experiment: X-ray crystallography; no metal ions; Complex dialyzed at 4°C in 25 mM HEPES pH 7.5, 0.3 mM TCEP, 0.5 M then 250 mM NaCl, with or without 5 mM MgCl2; DNA:protein 1:1.05 as printed
T1 sequence: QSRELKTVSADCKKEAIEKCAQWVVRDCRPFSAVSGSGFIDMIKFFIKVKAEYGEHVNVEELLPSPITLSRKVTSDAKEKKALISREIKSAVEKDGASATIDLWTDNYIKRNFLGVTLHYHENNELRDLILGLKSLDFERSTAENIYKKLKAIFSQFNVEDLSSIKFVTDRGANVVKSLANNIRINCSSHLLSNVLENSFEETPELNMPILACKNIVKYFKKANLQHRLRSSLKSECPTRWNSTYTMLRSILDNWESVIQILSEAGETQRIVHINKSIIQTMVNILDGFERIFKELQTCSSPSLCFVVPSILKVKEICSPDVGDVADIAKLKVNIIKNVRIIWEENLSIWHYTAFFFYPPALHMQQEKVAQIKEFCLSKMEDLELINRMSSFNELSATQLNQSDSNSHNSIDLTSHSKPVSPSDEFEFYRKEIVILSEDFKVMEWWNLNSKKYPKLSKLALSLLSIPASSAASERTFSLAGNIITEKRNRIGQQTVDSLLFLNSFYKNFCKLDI

[2] = target: the molecule itself; experiment: crystal structure; HermesΔ co-crystallised with annealed DNA(C:G) or DNA(A:T) oligonucleotides, hanging drops at 4°C, with or without a soak in 8 mM CaCl2 or MnCl2; four structures at 2.85-3.2 Å
HermesΔ transposase [3] = target: T1, HermesΔ transposase; experiment: X-ray crystallography; 8 mM Mn2+ soak, 48 h; two Mn2+ in active site, third Mn2+ at N185; Complex dialyzed at 4°C in 25 mM HEPES pH 7.5, 0.3 mM TCEP, 0.5 M then 250 mM NaCl, with or without 5 mM MgCl2; DNA:protein 1:1.05 as printed

B1: DNA(C:G) (dsDNA)
DNA 1: GCGTGAC
DNA 2: AGAGAACAACAACAAG
DNA 3: CTTGTTGTTGTTCTCTGGGTCACGC
binding result (HermesΔ transposase [1]): binds

B2: Hermes_(79-612Δ497-516) (enzyme, Musca domestica, UniProt Q25442 79-612, looked up)
chain: QSRELKTVSADCKKEAIEKCAQWVVRDCRPFSAVSGSGFIDMIKFFIKVGAEYGEHVNVEELLPSPITLSRKVTSDAKEKKALISREIKSAVEKDGASATIDLWTDNYIKRNFLGVTLHYHENNELRDLILGLKSLDFERSTAENIYKKLKAIFLQFNVEDLSSIKFVTDRGANVVKSLANNIRINCSSHLLSNVLENSFEETPELNVPILACKNIVKYFKKANLQHRLRSSLKSECPTRWNSTYTMLRSILDNWESVIQILSEAGETQRIVHINKSIIQTMVNILDGFERIFKELQTCSSPSLCFVVPSILKVKEICSPDVGDVADIAKLKVNIIKNVRIIWEENLSIWHYTAFFFYPPALHMQQEKVAQIKEFCLSKMEDLELINRMSSFNELSATQLNQSDSNSHNSIDLTSHSKPVSPSDEFEFYRKEIVILSEDFKVMEWWNLNSKKYPKLSKLALSLLSIPASSAASERTFSLAGNIITEKRNRIGQQTVDSLLFLNSFYKNFCKLDI
binding result [2]: binds

B3: DNA(A:T) (dsDNA)
DNA 1: GCGTGAA
DNA 2: AGAGAACAACAACAAG
DNA 3: CTTGTTGTTGTTCTCTGGTTCACGC
binding result (HermesΔ transposase [3]): binds
